# Test results from the Immune Epitope Database (IEDB).
# Tests used:
# [1] = target: HLA-A*02:01; assay: IEDB peptide-MHC binding, purified MHC/direct/fluorescence; filed as Kd, often an IC50 or EC50 that approximates it; ≥ and ≤ were set here for values at or beyond the usual limits of such assays
# [2] = target: HLA-A*02:03; assay: as above
# [3] = target: HLA-A*02:11; assay: as above
# [4] = target: HLA-A*02:12; assay: as above
# [5] = target: HLA-A*02:16; assay: as above
# [6] = target: HLA-A*02:19; assay: as above
# [7] = target: HLA-A*03:01; assay: as above
# [8] = target: HLA-A*24:03; assay: as above
# [9] = target: HLA-A*26:01; assay: as above
# [10] = target: HLA-B*07:02; assay: as above
# [11] = target: HLA-B*15:01; assay: as above
# [12] = target: HLA-B*27:03; assay: as above
# [13] = target: HLA-B*35:01; assay: as above
# [14] = target: HLA-B*39:01; assay: as above
# [15] = target: HLA-B*46:01; assay: as above
# [16] = target: HLA-B*51:01; assay: as above; settings: source organism: Vibrio vulnificus CMCP6
# [17] = target: HLA-B*57:01; assay: as above
# [18] = target: HLA-A*24:02; assay: IEDB peptide-MHC binding, purified MHC/competitive/fluorescence; ≥ and ≤ were set here for values at or beyond the usual limits of such assays
# [19] = target: HLA-B*07:02; assay: as above; settings: source organism: Zaire ebolavirus
# [20] = target: HLA-B*08:01; assay: as above
# [21] = target: HLA-A*01:01; assay: IEDB peptide-MHC binding, purified MHC/direct/fluorescence; filed as Kd, often an IC50 or EC50 that approximates it; ≥ and ≤ were set here for values at or beyond the usual limits of such assays
# [22] = target: HLA-A*11:01; assay: as above
# [23] = target: HLA-A*26:02; assay: as above
# [24] = target: HLA-A*26:03; assay: as above
# [25] = target: HLA-A*31:01; assay: as above
# [26] = target: HLA-A*68:02; assay: as above
# [27] = target: HLA-A*69:01; assay: as above
# [28] = target: HLA-B*08:02; assay: as above
# [29] = target: HLA-B*15:02; assay: as above; settings: source organism: Aracatuba virus
# [30] = target: HLA-B*27:05; assay: as above
# [31] = target: HLA-B*48:01; assay: as above
# [32] = target: HLA-B*58:01; assay: as above
# [33] = target: HLA-B*15:17; assay: IEDB peptide-MHC binding, purified MHC/competitive/fluorescence; filed as Kd, often an IC50 or EC50 that approximates it; ≥ and ≤ were set here for values at or beyond the usual limits of such assays; settings: source organism: Vaccinia virus
# [34] = target: HLA-B*35:01; assay: as above; settings: source organism: Vaccinia virus
# [35] = target: HLA-A*29:02; assay: IEDB peptide-MHC binding, purified MHC/direct/fluorescence; filed as Kd, often an IC50 or EC50 that approximates it; ≥ and ≤ were set here for values at or beyond the usual limits of such assays; settings: source organism: Burkholderia mallei ATCC 23344
# [36] = target: HLA-B*18:01; assay: as above
# [37] = target: HLA-B*08:01; assay: as above; settings: source organism: Vibrio cholerae V52
# [38] = target: HLA-B*08:03; assay: as above; settings: source organism: Vibrio cholerae V52
# [39] = target: HLA-B*15:09; assay: as above; settings: source organism: Vibrio cholerae V52
# [40] = target: HLA-B*15:17; assay: as above
# [41] = target: HLA-B*40:01; assay: as above; settings: source organism: Vibrio cholerae
# [42] = target: HLA-B*44:02; assay: as above; settings: source organism: Vibrio cholerae
# [43] = target: HLA-A*30:01; assay: IEDB peptide-MHC binding, purified MHC/competitive/fluorescence; filed as Kd, often an IC50 or EC50 that approximates it; ≥ and ≤ were set here for values at or beyond the usual limits of such assays; settings: source organism: Vibrio cholerae 2740-80
# [44] = target: HLA-A*02:01; assay: IEDB peptide-MHC binding, purified MHC/competitive/fluorescence; ≥ and ≤ were set here for values at or beyond the usual limits of such assays
# [45] = target: HLA-B*15:01; assay: as above; settings: source organism: Zaire ebolavirus
# [46] = source organism: Vibrio vulnificus CMCP6
# [47] = source organism: Zaire ebolavirus
# [48] = source organism: Aracatuba virus
# [49] = source organism: Burkholderia mallei ATCC 23344
# [50] = source organism: Vibrio cholerae
# [51] = source organism: Vibrio cholerae V52
# [52] = source organism: Salmonella enterica subsp. enterica serovar Typhimurium
# [53] = source organism: Vaccinia virus Copenhagen
sequence,measurement,setting,value
EMSLADYLY,Kd,[1]; [46],≥ 20 µM
same,Kd,[2]; [46],≥ 20 µM
same,Kd,[3]; [46],≥ 20 µM
same,Kd,[4]; [46],≥ 20 µM
same,Kd,[5]; [46],≥ 20 µM
same,Kd,[6]; [46],≥ 20 µM
same,Kd,[7]; [46],≥ 20 µM
same,Kd,[8]; [46],≥ 20 µM
same,Kd,[9]; [46],≥ 20 µM
same,Kd,[10]; [46],≥ 20 µM
same,Kd,[11]; [46],0.029 µM
same,Kd,[12]; [46],≥ 20 µM
same,Kd,[13]; [46],0.027 µM
same,Kd,[14]; [46],≥ 20 µM
same,Kd,[15]; [46],≥ 20 µM
same,Kd,[16],≥ 20 µM
same,Kd,[17]; [46],≥ 20 µM
ERGVRLHPL,IC50,[18]; [47],44.3 µM
same,IC50,[19],≥ 95.4 µM
same,IC50,[20]; [47],8.92 µM
LLLLISLVY,Kd,[21]; [48],≥ 20 µM
same,Kd,[1]; [48],≥ 20 µM
same,Kd,[22]; [48],≥ 20 µM
same,Kd,[23]; source organism: Variola virus,≥ 20 µM
same,Kd,[24]; source organism: Variola virus,≥ 20 µM
same,Kd,[25]; [48],≥ 20 µM
same,Kd,[26]; [48],≥ 20 µM
same,Kd,[27]; [48],≥ 20 µM
same,Kd,[10]; [48],≥ 20 µM
same,Kd,[28]; source organism: Variola virus,≥ 20 µM
same,Kd,[11]; [48],≥ 20 µM
same,Kd,[29],4.57 µM
same,Kd,[30]; [48],≥ 20 µM
same,Kd,[14]; source organism: Variola virus,≥ 20 µM
same,Kd,[15]; [48],≥ 20 µM
same,Kd,[31]; [48],≥ 20 µM
same,Kd,[17]; [48],≥ 20 µM
same,Kd,[32]; [48],≥ 20 µM
same,Kd,[33],≥ 20 µM
same,Kd,[34],≥ 20 µM
MSADNAGAL,Kd,[1]; [49],≥ 20 µM
same,Kd,[4]; [49],≥ 20 µM
same,Kd,[5]; [49],≥ 20 µM
same,Kd,[6]; [49],≥ 20 µM
same,Kd,[7]; [49],≥ 20 µM
same,Kd,[8]; [49],≥ 20 µM
same,Kd,[35],≥ 20 µM
same,Kd,[36]; [49],≥ 20 µM
same,Kd,[12]; [49],≥ 20 µM
same,Kd,[17]; [49],≥ 20 µM
REVFDYLLP,Kd,[21]; [50],≥ 20 µM
same,Kd,[1]; [50],≥ 20 µM
same,Kd,[22]; [50],≥ 20 µM
same,Kd,[23]; [51],≥ 20 µM
same,Kd,[24]; [51],≥ 20 µM
same,Kd,[25]; [50],≥ 20 µM
same,Kd,[26]; [50],≥ 20 µM
same,Kd,[27]; [50],≥ 20 µM
same,Kd,[10]; [50],≥ 20 µM
same,Kd,[37],≥ 20 µM
same,Kd,[28]; [51],≥ 20 µM
same,Kd,[38],≥ 20 µM
same,Kd,[39],≥ 20 µM
same,Kd,[40]; [50],≥ 20 µM
same,Kd,[36]; [50],≥ 20 µM
same,Kd,[30]; [50],≥ 20 µM
same,Kd,[14]; [51],≥ 20 µM
same,Kd,[41],0.077 µM
same,Kd,[42],≥ 20 µM
same,Kd,[31]; [50],≥ 20 µM
same,Kd,[17]; [50],≥ 20 µM
same,Kd,[32]; [50],≥ 20 µM
same,Kd,[43],≥ 20 µM
VMNHKNKFM,IC50,[44]; [47],3.51 µM
same,IC50,[18]; [47],2.14 µM
same,IC50,[20]; [47],8.29 µM
same,IC50,[45],18 µM
WPVMQWLTA,Kd,[1]; [52],≥ 20 µM
same,Kd,[2]; [52],≥ 20 µM
same,Kd,[3]; [52],≥ 20 µM
same,Kd,[4]; [52],≥ 20 µM
same,Kd,[5]; [52],≥ 20 µM
same,Kd,[6]; [52],≥ 20 µM
same,Kd,[7]; [52],≥ 20 µM
same,Kd,[9]; [52],≥ 20 µM
same,Kd,[10]; [52],0.289 µM
same,Kd,[11]; [52],8 µM
same,Kd,[40]; [52],≥ 20 µM
same,Kd,[36]; [52],≥ 20 µM
same,Kd,[12]; [52],≥ 20 µM
same,Kd,[13]; [52],0.024 µM
same,Kd,[15]; [52],≥ 20 µM
same,Kd,[17]; [52],≥ 20 µM
YFLKIKVTA,IC50,[44]; [53],6.34 µM
same,IC50,[18]; [53],3.76 µM
same,IC50,[20]; [53],8.88 µM
